{
  "source": "patent US20230189818A1",
  "about": "“RNA-BASED CONTROL OF BOTRYTIS” (priority 2021, published 2023)",
  "key": {"[1]": {"system": "Botrytis cinerea isolate (B05.10)", "experiment": "Detached leaf assay (tomato leaflets, lesion size)", "assay_type": "in vivo", "details": "five days post inoculation, vs untreated inoculated control", "procedure,_shortened": "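Tomato (Brandywine) detached lateral leaflets were sprayed with treatment in 0.03% Silwet L-77 24 h before inoculation. Two 10 μL drops of 1×10^5 conidia/mL in 7% grape juice were applied per leaflet, which was then incubated at 23 °C, ~75% RH, 12/12 light. Lesion diameter was measured at 5 DPI against the untreated inoculated control, ten replicates.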"}, "[2]": {"system": "Botrytis cinerea conidia", "experiment": "In vitro liquid-based assay (fungal biomass, 96-well plates, Cytation 5)", "assay_type": "cell-based", "details": "co-incubated with conidia for three days, vs untreated control", "procedure,_shortened": "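Conidia (5000/mL stock) were co-incubated with dsRNA or control treatments in pH 6.0 minimal medium. Incubation ran 72 h at 23 °C, shaking at 120 rpm under continuous light. Fungal biomass was measured by brightfield imaging (8 slices per well, 2.5× lens) and expressed as average reduction versus control.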"}},
  "data": [
    {"molecule": "GS2297: dsRNA trigger targeting B. cinerea Bcrpb5 (XM_024693733.1); trigger SEQ ID NO 23, RNA 35, reverse complement 47 (nucleic acid, listed as Botrytis cinerea) sense: UGCACCAUCAGGUCCCGCUCAAAAGAUUAUUCCCGCUGUCGCAUCCGAGACAAGAAUCGAGACCUUCGUCGAGCAAGAUUUACUUGUCAAUAUUACACAUCAUGAAUUGGUUCCCAAGCAUGUUUUGUUAAGUAGAGAAGAGAGGGCCAAGUUGUUGUCAAGAUAUAGAUUGAAGGAUACUCAACUCCCACGUAUUCAGGCUGCGGAUCCAGUUGCAAAAUAUUUGGGAUUGAGAAGAGGGCAGGUCGUUAAGAUUAUCAGAAAGUCGGAAACUGCUGGUCGUUAUGCCAGUUACAGAUUGUGCGUAUAAUGGAGCUGGAGGGUAGAUGAUUUGGUGUUAAUAACUAGGGAGUUUCUUGGGAAAAAUUUGCAUAUUUGGGGAAGGCGUAAUAGGCUGGAAGAAAGACUGAGGAUGAGAUUGUCUAUUUUGGCUUUCCAGGAAGCAAUACUUUGAGACAUGAAAUUUGAUAUUAAAUUUCUUGUUCUGUAUAUUUCUGAUAGUUUCAGAGCUUUUCAAUAAGAUCUAUUCUACAGUUUUAAGAAUCCAGACUCACCCUUUGAGAAGCUCAUACAAAGUUCCUUCCUA antisense: UAGGAAGGAACUUUGUAUGAGCUUCUCAAAGGGUGAGUCUGGAUUCUUAAAACUGUAGAAUAGAUCUUAUUGAAAAGCUCUGAAACUAUCAGAAAUAUACAGAACAAGAAAUUUAAUAUCAAAUUUCAUGUCUCAAAGUAUUGCUUCCUGGAAAGCCAAAAUAGACAAUCUCAUCCUCAGUCUUUCUUCCAGCCUAUUACGCCUUCCCCAAAUAUGCAAAUUUUUCCCAAGAAACUCCCUAGUUAUUAACACCAAAUCAUCUACCCUCCAGCUCCAUUAUACGCACAAUCUGUAACUGGCAUAACGACCAGCAGUUUCCGACUUUCUGAUAAUCUUAACGACCUGCCCUCUUCUCAAUCCCAAAUAUUUUGCAACUGGAUCCGCAGCCUGAAUACGUGGGAGUUGAGUAUCCUUCAAUCUAUAUCUUGACAACAACUUGGCCCUCUCUUCUCUACUUAACAAAACAUGCUUGGGAACCAAUUCAUGAUGUGUAAUAUUGACAAGUAAAUCUUGCUCGACGAAGGUCUCGAUUCUUGUCUCGGAUGCGACAGCGGGAAUAAUCUUUUGAGCGGGACCUGAUGGUGCA", "values": [
      {"measurement": "Average % Reduction in Lesion Size", "setting": "[1]; 30 ppm", "value": 27.63, "unit": "%"},
      {"measurement": "Average % Reduction in Lesion Size", "setting": "[1]; 50 ppm", "value": 24.35, "unit": "%"},
      {"measurement": "Average % Reduction in Biomass", "setting": "[2]; 25 ppm dsRNA", "value": 11, "unit": "%"},
      {"measurement": "Average % Reduction in Biomass", "setting": "[2]; 150 ppm dsRNA", "value": 24, "unit": "%"}
    ]}
  ]
}
